Source: patent US20220143185A1, “ORALLY ACTIVE SMALL MOLECULE INHIBITOR OF PAI-1” (Northwestern University, priority 2019, published 2022)

Experiments:
PCSK9 [1] = target: T1, PCSK9 (Homo sapiens, UniProt Q8NBP7); experiment: Plasma PCSK9 and PAI-1 levels in hypercholesterolemic patients treated with PCSK9 monoclonal antibodies; assay type: in vivo; set-up: from tissue; host or cells: plasma of hypercholesterolemic patients; details: before vs during treatment; for plasma PAI-1 levels: n=28, p=0.0029
Experimental: Plasma samples from hypercholesterolemic patients were obtained from the OHSU Center for Preventive Cardiology Registry and Biorepository, approved by OHSU Institutional Review Board (17329).
Total cholesterol was quantified in the murine plasma using an enzymatic determination (Pointe Scientific, Cat #C7510). The lipoprotein profile of the murine plasma samples was assessed running a fast-phase liquid chromatography (FPLC), in brief 100 μL of plasma (from one animal or a pool of several samples of the same conditions) were loaded to a Superose 6 column (GE HealthCare, Cat #29-0915-96) at a flow rate of 0.5 mL/min in running buffer (0.15M NaCl, 0.01M Na2HPO4 and 1 mM EDTA). Fractions were collected every minute for 41 minutes and analyzed for cholesterol concentrations as described above. Murine plasma PCSK9 levels were determined using an ELISA kit (MBL International, Cat #CY-80781). Murine PAI-1 levels were quantified using an ELISA kit (Molecular Innovations, Cat #MPAIKT-TOT). Murine PAI-1 activity levels were quantified by ELISA (Molecular Innovations, Cat #MPAIKT). Human PAI-1 levels were quantified by ELISA (Molecular Innovations, Cat #HPAIKT-TOT).
PAI-1 and PCSK9 levels were also quantified in plasma samples obtained from a human cohort with and without heart failure with preserved ejection fraction (HFpEF). There was again a positive correlation between PAI-1 and PCSK9 levels in these patients, similar to that in mice and in the Amish kindred (FIG. 19D, p<0.0001; R=0.351).

PCSK9 [2] = target: T1, PCSK9

total plasma PCSK9 levels (PCSK9 [1])	plasma PAI-1 levels (PCSK9 [1])	Molecule	proteolytic degradation of PCSK9 in vitro (Western blot for PCSK9, silver stain) (PCSK9 [2])
large increase	significant reduction	alirocumab	–
–	–	recombinant human low molecular weight urokinase	efficiently promoted the proteolytic degradation of recombinant human PCSK9
large increase	significant reduction	evolocumab (antibody, chains of the INN, looked up, V domains shown) VH: EVQLVQSGAEVKKPGASVKVSCKASGYTLTSYGISWVRQAPGQGLEWMGWVSFYNGNTNYAQKLQGRGTMTTDPSTSTAYMELRSLRSDDTAVYYCARGYGMDVWGQGTTVTVSS VL: ESALTQPASVSGSPGQSITISCTGTSSDVGGYNSVSWYQQHPGKAPKLMIYEVSNRPSGVSNRFSGSKSGNTASLTISGLQAEDEADYYCNSYTSTSMVFGGGTKLTVL	–
